The target of experiment [1] is TRAIL receptor 1 (TRAIL-R1) (Homo sapiens (Human)) (UniProt O00220).
The target is the same in experiment [2]. The source holds these as a separate data set.
For experiment [3], the system named is TRAIL DISC in Jurkat cells. In words: DISC analysis with biotinylated TRAIL in Jurkat cells. Format: cell-based. As to conditions: biotinylated ligand 500 ng ml^−1, 30 min. On the procedure: (§1) After exposure of the cells for 30 min, DISC complexes were isolated and analyzed for the indicated proteins by Western blotting. To provide an unstimulated receptor control (u/s), biotinylated wt or mutant TRAIL was added to lysate from untreated cells. C: Freshly isolated cells from patients with CLL were incubated for 16 h either alone or in the presence of depsipeptide (10 nM). […] The different symbols used indicate data from six individual patients and the solid line indicates the Mean.
(§2) Ramos or Jurkat cells (5×10^7 cells per treatment) were exposed to biotin-tagged recombinant His-TRAIL (biotinylated TRAIL) or one of its mutant forms (500 ng ml^−1) for 30 min and then DISC formation assessed as described previously (MacFarlane et al., 2002 ibid.).

For experiment [4], the system named is Jurkat cells. In words: Caspase-8 and -3 processing by Western blot in Jurkat cells. Format: cell-based. Conditions: FIG. 1D. As to the method:
(§3) Cells were also exposed to HGS-ETR1 or HGSETR2 (1 μg ml^−1). C: Ramos or Jurkat cells were pre-incubated for 30 min either alone or with TRAIL-R1 blocking Ab or TRAIL-R2 neutralizing Ab (5 μg ml^−1). […] D: Ramos and Jurkat cells were exposed to wt TRAIL or TRAIL mutants as described above and processing of caspase-3 and -8 determined by Western blot analysis. The asterisk indicates a non-specific band. The lower panel of the blot for detection of the caspase-8 p18 subunit was exposed for twice as long as the upper panel. Apoptosis was assessed by phosphatidylserine externalization and results expressed as the Means±SEM of at least 3 separate determinations.
(§4) Apoptosis was quantified by phosphatidylserine (PS) externalization in the presence of propidium iodide as described (MacFarlane et al., 2002 ibid.). Samples for Western blot analysis were prepared and caspase processing detected as described (Inoue et al., 2004 ibid.; MacFarlane et al., 2005 ibid.).
(§5) To confirm that the mutants were inducing apoptosis, we examined their effects on the processing of caspase-8, the apical caspase in death receptor-induced apoptosis and caspase-3, an effector caspase.
On the technique in general: In western blotting, separated proteins are transferred to a membrane and probed.

Experiment [5] relates to TRAIL DISC in Ramos cells. In words: DISC analysis with biotinylated TRAIL in Ramos cells. Type of experiment: cell-based. Conditions: biotinylated ligand 500 ng ml^−1, 30 min. As to the method:
as §1, §2

Experiment [6] deals with Ramos cells. In words: Caspase-8 and -3 processing by Western blot in Ramos cells. Format: cell-based. Conditions: FIG. 1D. As to the method:
as §3, §4, §5

For experiment [7], the system named is Ramos cells. In words: Apoptosis by phosphatidylserine (PS) externalization in Ramos cells. Type of experiment: cell-based. Conditions: 4 h exposure, 500 ng ml^−, Mean ± SEM of at least three determinations. As to the method:
as §3
(§6) Ramos, an Epstein-Barr virus-negative Burkitt's lymphoma cell line, and Jurkat T cells (clone E6-1) were cultured as described (MacFarlane et al (2005 Cell Death and Differentiation vol 12 pages 773-782)). Blood samples were obtained from CLL patients, with patient consent and local ethical committee approval and CLL cells purified as described (MacFarlane et al (2002 Oncogene 21, 6809-6818). Cells were incubated for 16 h with depsipeptide (10 nM), provided by Dr. E. Sausville (NCI, USA). Cells were then cultured for a further 6 h with either HGSETR1 or HGS-ETR2, agonistic mAbs to TRAIL-R1 or -R2, respectively (Human Genome Sciences, Rockville, Md.), His-TRAIL-LE (a recombinant TRAIL with low endotoxin—Alexis Corporation, Nottingham, UK), His-TRAIL, a similar form of human recombinant TRAIL (MacFarlane et al (1997 J Biol Chem 272, 25417-25420)) but not further purified to reduce endotoxin levels or a mutant form of His-TRAIL as described (MacFarlane et al., 2005 ibid.). Cell lines were also pre-incubated for 30 min with a TRAIL-R1 blocking Ab and a TRAIL-R2 neutralizing Ab from Alexis and R&D systems, respectively, prior to exposure to TRAIL. Freshly isolated cells from patients with MCL were isolated, purified and incubated with different forms of TRAIL as described above for CLL cells. Samples were either analyzed immediately for apoptosis or stored at −80° C. for subsequent Western blotting. Other methods and reagents were as described (Inoue (2004 Cell Death Differ 11 Suppl 2, S193-206); MacFarlane et al., 2005 ibid).
as §4
Ramos and Jurkat T cells (clone E6-1) were cultured as described (MacFarlane et al, 2005 ibid.). The breast tumour cell line, MCF-7 (clone F43) was cultured as described previously (MacFarlane et al., 2000 J. Cell Biol. 148, 1239-1254). Cells were cultured for either 4 h (Ramos and Jurkat) or 6 h (MCF-7) with His-TRAIL (MacFarlane et al, 1997 J Biol Chem 272, 25417-25420), HGS-ETR1 or HGS-ETR2 (Human Genome Sciences), or a mutant form of His-TRAIL (MacFarlane et al, 2005 ibid.). Samples were analyzed for apoptosis, Western blotting, or TRAIL DISC activation as described (MacFarlane et al, 2005 ibid.; MacFarlane et al. 2002 Oncogene 21, 6809-6818). Mutants of His-TRAIL (residues 95-281) were generated using the Quik-Change site-directed mutagenesis kit (Stratagene, Calif.), confirmed by DNA sequencing, expressed in E. coli and purified as described (MacFarlane et al, 1997 ibid.). For siRNA targeting of TRAIL-R1/-R2, MCF-7 cells were seeded into six-well plates immediately prior to effectene-mediated RNAi transfection with either a negative control siRNA (30 nM, Ambion, #4611), or preannealed siRNA oligonucleotides for TRAIL-R1 or TRAIL-R2 (30 nM, Ambion), with the sequence and validity described (Ren et al, 2004 Mol. Biol. Cell vol 15 pp 5064-5074). After 40 h of transfection the cells were collected and total TRAIL-R1 or TRAIL-R2 levels assessed. […]

Experiment [8] concerns primary CLL cells. In words: Apoptosis in freshly isolated CLL cells after depsipeptide. Format: cell-based, human. Conditions: depsipeptide 10 nM 16 h, then 6 h ligand or antibody, FIG. 2C. As to the method: as §1, §6, §4
Experiment [9] relates to primary MCL cells. In words: Apoptosis in freshly isolated primary MCL cells with or without depsipeptide pre-treatment. Type of experiment: cell-based, human. Conditions: no depsipeptide, spontaneous apoptosis 23.4±2.9%. As to the method:
Cell lines were also pre-incubated for 30 min with a TRAIL-R1 blocking Ab and a TRAIL-R2 neutralizing Ab from Alexis and R&D systems, respectively, prior to exposure to TRAIL. Freshly isolated cells from patients with MCL were isolated, purified and incubated with different forms of TRAIL as described above for CLL cells. Samples were either analyzed immediately for apoptosis or stored at −80° C. for subsequent Western blotting. Other methods and reagents were as described (Inoue (2004 Cell Death Differ 11 Suppl 2, S193-206); MacFarlane et al., 2005 ibid).
as §4
We also obtained three samples from patients with mantle cell lymphoma (MCL), an incurable and aggressive disease that accounts for ˜6% of all non-Hodgkin's lymphoma. There are no standard treatments for MCL and the prognosis is very poor particularly for the blastoid variant. MCL cells were isolated and exposed to the different forms of TRAIL after pre-treatment for 16 h with depsipeptide (5 nM).

Consider HGS-ETR1 (antibody), for which, in experiment [1], the apoptosis of primary MCL cells after depsipeptide (5 nM, 16 h) came out at 68.2%.

“His-TRAIL (wild type, residues 95-281) (from UniProt P50591) (ligand)” registered an apoptosis of primary MCL cells without depsipeptide in experiment [1] of 25.5%. Moreover, in experiment [2], the % PS+ cells (apoptosis by phosphatidylserine externalization), Ramos cells, 4 h, 500 ng/ml stood at 41.8 % PS+ cells.

B1: wild type: His-tagged human recombinant TRAIL residues 95-281, wild type sequence (protein)
chain: TSEETISTVQEKQQNISPLVRERGPQRVAAHITGTRGRSNTLSSPNSKNEKALGRKINSWESSRSGHSFLSNLHLRNGELVIHEKGFYYIYSQTYFRFQEEIKENTKNDKQMVQYIYKYTSYPDPILLMKSARNSCWSKDAEYGLYSIYQGGIFELKENDRIFVSVTNEHLIDMDHEASFFGAFLVG
modifications: biotin (site not stated) in the DISC analysis only; not biotinylated in the apoptosis assays
Regarding B1, the “DISC formation: receptor bound, FADD and caspase-8 recruitment” value in experiment [3] was “bound TRAIL-R2 extensively in the DISC”; in [5], “bound both TRAIL-R1 and -R2, and recruited FADD and caspase-8”. Also, the “processing of caspases-8 and -3” value in experiment [4] is on record as “most potent”. For the same molecule, in [6], the “processing of caspase-8 and caspase-3” value is given as “induced the processing”. Moreover, the “% PS+ cells, Ramos” value in experiment [7] is recorded as 41.8 ± 5.2%. In addition, the “sensitization of CLL cells to induced apoptosis by depsipeptide” value in experiment [8] is listed as “sensitized CLL cells”. In addition, the “apoptosis, ligand alone” value in experiment [9] is reported as 25.5±3.8%.

The values are drawn from US20090325867A1, “RECEPTOR-SPECIFIC TUMOUR NECROSIS FACTOR-RELATED APOPTOSIS-INDUCING LIGAND (TRAIL) VARIANTS” (MEDICAL RESEARCH COUNCIL, priority 2005, published 2009).
